Values of other authors, collected in patent publication US20050164234A1, “Methods of using mammalian RNase H and compositions thereof” (priority 1997, published 2005).

Molecular target: DNA/2′F heteroduplex
Conditions: derived from previously reported data, Lima and Crooke (1997); cited from earlier work

B1: E. coli RNase H1: E. coli RNase H1 enzyme, 155 amino acids, literature comparator (protein)
chain: MLKQVEIFTDGSCLGNPGPGGYGAILRYRGREKTFSAGYTRTTNNRMELMAAIVALEALKEHCEVILSTDSQYVRQGITQWIHNWKKRGWKTADKKPVKNVDLWQRLDAALGQHQIKWEWVKGHAGHPENERCDELARAAAMNPTLEDTGYQVEV
  Kd: 1600 nM
